{"source": "patent US20110097262A1", "about": "(PIERRE FABRE MEDICAMENT, published 2011)", "binders": {"B1": {"name": "[224G11] [MHchim] (antibody, human IgG1, V domains shown)", "VH": "EVQLQQSGPELVKPGASVKISCKTSGYIFTAYTMHWVRQSLGESLDWIGGIKPNNGLANYNQKFKGKATLTVDKSSSTAYMDLRSLTSEDSAVYYCARSEITTEFDYWGQGTALTVSS", "VL": "DIVLTQSPASLAVSLGQRATISCRASESVDSYANSFMHWYQQKPGQPPKLLIYRASNLESGIPARFSGSGSRTDFTLTINPVEADDVATYYCQQSKEDPLTFGSGTKLEMKR"}, "B2": {"name": "[224G11] [MUP9Hchim] (antibody, human IgG1, V domains shown)", "VH": "B1 VH", "VL": "B1 VL"}, "B3": {"name": "[224G11] [MMCHchim] (antibody, human IgG1, V domains shown)", "VH": "B1 VH", "VL": "B1 VL"}, "B4": {"name": "[224G11][TH7chim] (antibody, human IgG1)", "heavy": "not shown", "light": "DIVLTQSPASLAVSLGQRATISCRASESVDSYANSFMHWYQQKPGQPPKLLIYRASNLESGIPARFSGSGSRTDFTLTINPVEADDVATYYCQQSKEDPLTFGSGTKLEMKRTVAAPSVFIFPPSDEQLKSGTASVVCLLNNFYPREAKVQWKVDNALQSGNSQESVTEQDSKDSTYSLSSTLTLSKADYEKHKVYACEVTHQGLSSPVTKSFNRGEC"}, "B5": {"name": "[224G11] [IgG2chim] (antibody)", "heavy": "EVQLQQSGPELVKPGASVKISCKTSGYIFTAYTMHWVRQSLGESLDWIGGIKPNNGLANYNQKFKGKATLTVDKSSSTAYMDLRSLTSEDSAVYYCARSEITTEFDYWGQGTALTVSSASTKGPSVFPLAPCSRSTSESTAALGCLVKDYFPEPVTVSWNSGALTSGVHTFPAVLQSSGLYSLSSVVTVPSSNFGTQTYTCNVDHKPSNTKVDKTVERKCCVECPPCPAPPVAGPSVFLFPPKPKDTLMISRTPEVTCVVVDVSHEDPEVQFNWYVDGVEVHNAKTKPREEQFNSTFRVVSVLTVVHQDWLNGKEYKCKVSNKGLPAPIEKTISKTKGQPREPQVYTLPPSREEMTKNQVSLTCLVKGFYPSDIAVEWESNGQPENNYKTTPPMLDSDGSFFLYSKLTVDKSRWQQGNVFSCSVMHEALHNHYTQKSLSLSPG", "light": "B4 light"}}, "target": "C-Met-Rluc (R. reniformis, UniProt P08581 25-1390; P27652 1-311)", "sequence (P08581 other isoform, or with tags, fused parts or gaps)": "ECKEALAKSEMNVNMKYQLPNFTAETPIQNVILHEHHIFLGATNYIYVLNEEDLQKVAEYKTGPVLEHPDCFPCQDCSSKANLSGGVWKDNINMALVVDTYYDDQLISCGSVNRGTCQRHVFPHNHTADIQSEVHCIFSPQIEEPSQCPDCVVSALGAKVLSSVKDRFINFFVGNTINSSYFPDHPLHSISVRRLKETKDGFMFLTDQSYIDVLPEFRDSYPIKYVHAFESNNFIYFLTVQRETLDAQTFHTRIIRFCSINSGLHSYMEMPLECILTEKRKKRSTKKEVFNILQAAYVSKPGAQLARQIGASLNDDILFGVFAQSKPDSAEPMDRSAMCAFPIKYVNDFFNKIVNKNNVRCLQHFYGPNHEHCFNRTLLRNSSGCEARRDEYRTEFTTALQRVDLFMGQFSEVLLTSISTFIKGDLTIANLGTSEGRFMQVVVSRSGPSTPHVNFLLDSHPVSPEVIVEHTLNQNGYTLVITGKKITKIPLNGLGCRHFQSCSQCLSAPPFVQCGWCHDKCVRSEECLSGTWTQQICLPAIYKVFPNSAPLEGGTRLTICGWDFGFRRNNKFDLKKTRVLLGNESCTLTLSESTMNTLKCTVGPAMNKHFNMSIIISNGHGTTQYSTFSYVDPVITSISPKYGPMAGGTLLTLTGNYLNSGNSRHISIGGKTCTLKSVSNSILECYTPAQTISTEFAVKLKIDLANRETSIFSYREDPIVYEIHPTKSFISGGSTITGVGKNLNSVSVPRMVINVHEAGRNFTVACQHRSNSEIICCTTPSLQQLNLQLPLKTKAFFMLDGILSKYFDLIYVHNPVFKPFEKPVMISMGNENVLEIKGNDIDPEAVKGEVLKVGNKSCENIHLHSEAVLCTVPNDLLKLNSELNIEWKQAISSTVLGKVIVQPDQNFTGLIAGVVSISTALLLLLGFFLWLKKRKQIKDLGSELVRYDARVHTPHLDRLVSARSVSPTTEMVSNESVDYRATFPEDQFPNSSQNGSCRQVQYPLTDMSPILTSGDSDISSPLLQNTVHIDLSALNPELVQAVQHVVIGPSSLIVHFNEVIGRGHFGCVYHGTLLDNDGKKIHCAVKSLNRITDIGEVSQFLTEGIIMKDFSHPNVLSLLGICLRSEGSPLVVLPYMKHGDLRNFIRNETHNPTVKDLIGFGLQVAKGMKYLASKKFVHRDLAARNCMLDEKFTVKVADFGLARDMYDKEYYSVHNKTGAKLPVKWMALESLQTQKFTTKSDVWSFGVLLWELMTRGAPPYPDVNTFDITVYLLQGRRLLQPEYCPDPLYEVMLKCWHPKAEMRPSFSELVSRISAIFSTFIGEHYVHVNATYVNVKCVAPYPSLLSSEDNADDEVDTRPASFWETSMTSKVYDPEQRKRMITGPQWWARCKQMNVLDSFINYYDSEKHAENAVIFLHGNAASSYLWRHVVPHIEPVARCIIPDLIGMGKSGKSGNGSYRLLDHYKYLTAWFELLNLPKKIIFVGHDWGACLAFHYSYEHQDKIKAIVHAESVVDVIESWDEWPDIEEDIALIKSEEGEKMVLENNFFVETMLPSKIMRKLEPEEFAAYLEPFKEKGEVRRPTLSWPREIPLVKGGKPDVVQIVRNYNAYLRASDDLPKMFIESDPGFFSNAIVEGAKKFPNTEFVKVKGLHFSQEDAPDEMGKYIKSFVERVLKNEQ", "assay": "cell-based or functional assay", "data": [{"binder": "B1", "values": [{"measurement": "BRET signal by Mab alone, c-Met activation model", "result": 5.1, "unit": "%"}]}, {"binder": "B2", "values": [{"measurement": "BRET signal by Mab alone, c-Met activation model", "result": 7.6, "unit": "%"}]}, {"binder": "B3", "values": [{"measurement": "BRET signal by Mab alone, c-Met activation model", "result": -2, "unit": "%"}]}, {"binder": "B4", "values": [{"measurement": "BRET signal by Mab alone, c-Met activation model", "result": -6.9, "unit": "%"}]}, {"binder": "B5", "values": [{"measurement": "inhibition of HGF induced BRET signal, c-Met activation model", "result": 66.3, "unit": "%"}]}]}
